How the values were obtained:
Settings in all cases: reference: wild type; sites Y554
[1] = molecular target: paxillin (endogenous, HEK293T) (UniProt P49023); assay: anti-FLAG IP, FLAG-peptide elution, Western blot
[2] = molecular target: Hic-5 (endogenous, HEK293T) (UniProt O43294); assay: anti-FLAG IP, FLAG-peptide elution, Western blot
[3] = molecular target: paxillin (Myc-tagged; endogenous in mouse brain) (UniProt Q8VI36); assay: anti-FLAG co-IP, anti-Myc blot
Hic-5 (Myc-tagged) = Hic-5 (Myc-tagged) (UniProt Q62219); assay: anti-FLAG co-IP, anti-Myc blot

Measured: binding against the reference

Git1 (FLAG-, YFP-tagged, transfected) (from UniProt Q9Z272) Y554F
stronger: all assays above
